Data on three molecules can be found in EP4431525A1 (Anaveon AG, dated 2024).

Positions count from the first letter of the chain named.

The target of assay [1] is T1, hPD-1 Avi-Tag Biotin (AcroBiosystems, PD1-H82E4) (human, UniProt Q15116 25-167, biotin on Avi-Tag).
T1 construct: bought; also called recombinant hPD-1
Kind of assay: IgG format; ELISA / SPR.

In assay [2] the target is T2, human PD-1 expressed on cells (human, UniProt Q15116 25-288).
T2 construct: whole, on cells; also called hPD-1; PDCD1
Kind of assay: Retrogenix cell microarray, HEK293 cells.

T1 sequence (Q15116 25-167 limits assumed): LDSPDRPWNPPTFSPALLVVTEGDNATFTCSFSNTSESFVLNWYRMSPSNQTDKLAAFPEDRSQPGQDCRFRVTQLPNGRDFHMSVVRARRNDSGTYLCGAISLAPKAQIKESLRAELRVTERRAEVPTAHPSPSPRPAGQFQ
T2 sequence (Q15116 25-288): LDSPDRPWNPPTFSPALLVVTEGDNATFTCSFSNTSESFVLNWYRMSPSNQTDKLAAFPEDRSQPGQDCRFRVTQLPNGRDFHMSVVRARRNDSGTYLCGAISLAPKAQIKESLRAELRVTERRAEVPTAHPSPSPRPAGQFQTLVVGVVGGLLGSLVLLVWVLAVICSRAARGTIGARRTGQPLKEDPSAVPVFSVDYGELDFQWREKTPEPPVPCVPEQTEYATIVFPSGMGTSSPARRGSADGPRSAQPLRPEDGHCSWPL

B1: z2-XVT458-m1 (antibody, V domains shown)
VH: QVQLVQSGAEVKKPGASVKVSCKASGYTFTNFYIHWVRQAPGQGLEWMGSIYPNYGFTAYNQKFKDRVTMTVDTSTSTAYMELRSLRSDDTAVYYCARGYSYAMDYWGQGTTVTVSS
VL: DIQMTQSPSSVSASVGDRVTITCSASQGIWGDLNWYQQKPGKAPKLLIYHTSQLHSDVPSRFSGSGSGTDFTLTISSLQPEDFATYYCQGYSKDLLTFGGGTKLEIK
notes: IgG format; also called XVT458-z2-m1; XVT458-z2-ml
In the case of B1, the binding result in assay [1] and in assay [2] was “binds” throughout.

B2: z2-XVT458-m6 (antibody, V domains shown)
VH: B1 VH with F57I
VL: B1 VL with W30S
notes: IgG format; also called XVT458-z2-m6; XVT458-Z2-m6
B2: the binding result in assay [1] and in assay [2] was “binds” throughout.

B3: z2-XVT458-m3 (antibody, V domains shown)
VH: B1 VH with S50R, F57I
VL: B1 VL with W30S, L54R
notes: IgG format; also called XVT458-z2-m3; XVT458-Z2-M3
As to B3, the binding result in assay [1] and in assay [2] was “binds” throughout.
